Test results taken from the RNAGym collection of RNA variant scans (doi:10.1073/pnas.2313332121).

B1: TPR t1 (parent)
chain: GACCAAUCUGCCCUCAGAGCUCGAGAACAUCUUCGGAUGCAGAGGAGGCAGGCUUCGGUGGCGCGAUAGCGCCAACGUCCUCAACCUCCAAUGCAUCCCACCACAUGAUGAUGCCUGAAGAGCCUUGGUUUUUUG

Variants of: B1
Experiment: polymerase ribozyme fitness, log enrichment relative to wild type (log ratio); higher = more active; in vitro selection for triplet polymerase activity
In short: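 PCR was used to build mutant libraries for each subunit of a heterodimeric triplet polymerase ribozyme, which were then transcribed. A single in vitro selection round, in triplicate, used a frozen incubation at −7 °C and recovered extended constructs by gel excision, streptavidin beads and RT-PCR. Fitness is the logarithm of genotype enrichment relative to wild-type enrichment, averaged over replicates with inverse-variance weights. The logarithm is base 2, and after Illumina sequencing only genotypes with ≥10 input reads and ≥1 read per output were kept.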

Row | Variant | polymerase ribozyme fitness (log ratio)
1 | G57U C62A G117U | -5.4
2 | G58C G93A C114U | -3.02
3 | G60U A83C G117A | -2.26
4 | G60C A83C C115U | -1.05
5 | G57C C99U A118G | -4.32
6 | G61A C79A | -2.09
7 | U59G U130G | -0.605
8 | G58U C73U | -0.0574
9 | G61A A83G G113A U130G | -1.85
10 | G58U G61A | -0.176
11 | U59A G63A | -1.13
12 | G57U A91G C114A U131A | -3.11
13 | G60U C104A | -1.7
14 | G58C C124A | 1.82
15 | G60U C101A C123G | 0.75
16 | G58C C80G C88A | -6.49
17 | G60C C124U G135A | 2.05
18 | G58C C70U A103U | -6.42
19 | G60C G61A C101A C123A U129A | -4.67
20 | U59C G120A G135U | -0.46
21 | G57A U87C | -1.14
22 | G60C A118U | -0.0622
23 | G61A C72A | -0.462
24 | U59A C82G A119U | -0.921

Row | Variant | polymerase ribozyme fitness (log ratio)
25 | G58C G60U A118G | -0.24
26 | G60A C79U U96A C115U C123G U132A | -1.19
27 | G60U C115A U125G | 0.39
28 | U59C G93A | -1.47
29 | G57U U132C | 0.0378
30 | G60C G77U | -0.19
31 | G60C A111G | -0.122
32 | G58A A84U U133A | -0.154
33 | G57U C62U U81A | -0.351
34 | G61A A121G | 1.21
35 | U59A A74C C82A G93C | -1.19
36 | U59A A66C C124A | 0.00699
37 | G61C A111C | -1.98
38 | G61C A111G | -0.983
39 | G60C U106C | -0.702
40 | G60C U106G | -3.41
41 | G60C C86U U106A | -0.567
42 | G60A C115A | -0.714
43 | G60A C115G | -1.65
44 | G57U U125A | -0.415
45 | G58U G61C A90G | 0.258
46 | G58A U125G | -0.683
47 | U59G C104A A105U G110A | -5.5
48 | G60A C70U C102A C115A | -3.29

Row | Variant | polymerase ribozyme fitness (log ratio)
49 | G57U C85A | -2.14
50 | U59C G93C G113U U133G | -3.53
51 | G61C C79U G117A G128A | -4.76
52 | U59C A108G | -2.19
53 | G61A G77A A95U | -1.47
54 | G57C U81C | 0.391
55 | G60U A100C | -1.26
56 | G58C U96G C104U | -0.405
57 | G60U G69A | -4.86
58 | G60C C123G | 1.61
59 | G60U C62G A83C | -0.657
60 | G60C U131A | -1.69
61 | G60C G61C | -1.72
62 | G61A C124G | 1.77
63 | G60U C82G | -1.12
64 | G60A U130A | -0.439
65 | G60A U130G | -0.663
66 | G61A C88G C104U C123G | 1.29
67 | U59C G128U | -2.04
68 | G57U C70G C124G | -2.06
69 | G61C C88U | -1.5
70 | G61A A111U G128C U133G | -4.57
71 | G58C G69A C123A | -3.42
72 | U59C U129C | -1.12

Row | Variant | polymerase ribozyme fitness (log ratio)
73 | G60C A103U | -5.01
74 | G60U A83C | 0.15
75 | G60U A83U | -0.0168
76 | G61A G69C U116C | -4.59
77 | G60U C85G C102A | -2.17
78 | G58C C73G C80U C102A G113A | -5.77
79 | G60U U78A C89G | -1.87
80 | U59A C124A | 1.62
81 | G57U G93A G110C | -5.09
82 | G60U G93U A108G G120U | -3.22
83 | G60A A74U U92A C104U U133A | -2.03
84 | G60U G63A C97A C99A A111U G122U U130A | -6.95
85 | G61C A66C G135U | -4.47
86 | U59C G122A C123U G128C | -0.638
87 | G61A C88U | -0.64
88 | G58C C101G C114A | -3.77
89 | G61A C101A U116A G128C | -6.04
90 | U59C U96C | -0.447
91 | G57C A83G U116G | -2.83
92 | U59C C102U C114G | -5.47
93 | G58A G60A | -0.506
94 | G61A U92C | -0.505
95 | G61A C104A | -1.95
96 | U59G C70U C101A | -2.5

Row | Variant | polymerase ribozyme fitness (log ratio)
97 | U59G G60A C70G C115A A121C | -4.99
98 | G58C C101G U112C U129G | -1.34
99 | G61A U106G C114U | -3.24
100 | G61A A111C | -0.072
101 | G60A C101U | -0.265
102 | U59A C114A | -1.7
103 | U59C C124A | 2.03
104 | G61A G128C | -1.93
105 | G58A U129C | -0.222
106 | G58C U129G | -0.485
107 | U59A C82A G93C | -0.829
108 | G60U C85A A103U A111C | -4.74
109 | G60U G120A C124A | 1.48
110 | G58C C86A C89G | -4.05
111 | G60A C80U | -1.64
112 | U59G G127U | -0.904
113 | G60C U130A | 0.137
114 | G57C C70U | -0.607
115 | G60C A66G | -1.22
116 | G58A U59C | -0.583
117 | G60U C102U | -1.09
118 | U59G C85U C115A | -0.695
119 | G61A G71U | -1.6
120 | G60C C62U | -2.34

Row | Variant | polymerase ribozyme fitness (log ratio)
121 | G60C U96A C101A A119U | -4.66
122 | G58A U96C | -0.271
123 | G57U C101G U106A G122A | -0.938
124 | G60C C86U U106G G120A | -2.2
125 | G61A C98U G120U | -0.011
126 | G60A G63A | -2.96
127 | G61A A111U U116C | -4.5
128 | G61A G120A U133A | 0.274
129 | U59G C82U G93U U96C C123U | -0.453
130 | G60C C89U C123G | 1.06
131 | G60A C88U G127A | -1.7
132 | G57U G63A C89G | -3.98
133 | U59A G63C C82A G127A | -2.72
134 | U59A C123G G127A | 0.53
135 | G58C U78G A90C A118U G127C | -2.89
136 | G60A C88G G113A | -2.28
137 | G61A U116G A121U | 0.807
138 | G60C G117C A121C | -4.85
139 | G57U G69U | -0.378
140 | U59G C99U U106A | -1.43
141 | U59A C89A | -1.85
142 | G57C G61A G120A | 0.501
143 | G61A C73A G127A | -1.74
144 | U59A G128C | -2.5

Row | Variant | polymerase ribozyme fitness (log ratio)
145 | G60C C88A U112A | -0.182
146 | G60U C76U | -2.74
147 | G57U G110U | -1.8
148 | G57U C94G U112G | -4.47
149 | G58C C72U A119U | -0.967
150 | G58C G110C A121U | -4.05
151 | U59C A84G | -1.4
152 | G60A U92G C115A G120C | -2.03
153 | G60C U112G U116C | -2.47
154 | G57U C79U A108G | -2.71
155 | G61C A83U G113C G120U U132A | -4.78
156 | U59C U92G C114G U125G | -4.63
157 | G57C U87A | -1.1
158 | G57U C72G C115A U132C G135C | -4.51
159 | G61A C88G G120A A121C G135U | -0.364
160 | G61A A100C | -0.823
161 | G61C C79A A95G G127A | -3.63
162 | G60C C99U | -4.01
163 | G60C A74U C88G | -2.91
164 | G60U G110A | -1
165 | G60U G110U | -0.553
166 | G60A C88U G120A G122U | 0.196
167 | G60A G69U C82U C85G U129A | -4.53
